Measured values published in paper PMC5481817, “Developing Targeted Hybrid Imaging Probes by Chelator Scaffolding” (Bioconjugate chemistry, 2017).
*1 amine or outer side, *2 acyl side, *3 side chain or, on linkers, in order; H or OH if unused. Where a SMILES comes first, the peptide text is derived from it. Bridges are numbered along the chain shown (N, C = ends). Roman numbers before positions name the chains, in order. [ ]: non-standard residue; d: D form. X1 = C/C1=C/C(=O)N(O)CCC[C@H](NC(=O)CCN2C(=O)CC([*:2])C2=O)C(=O)OCC/C(C)=C\C(=O)N(O)CCC[C@H](NC(=O)CCN2C(=O)CC([*:1])C2=O)C(=O)OCC/C(C)=C\C(=O)N(O)CCC[C@H](NC(=O)CCCCC[N+]2=C(C=CC3=CC(=CC=C4N(C)c5ccc(S(=O)(=O)[O-])cc5C4(C)C)CCC3)C(C)(C)c3cc(S(=O)(=O)O)ccc32)C(=O)OCC1; Mpa = O=C(O)CCS

Assays:
[1] = system: A431-CCK2R/A431-mock tumor xenograft-bearing BALB/c nude mice; test: Static micro-PET/CT imaging, A431-CCK2R/A431-mock xenografts; type: in vivo, mouse; conditions: static PET, 60 and 120 min post-injection
Method: All animal experiments were conducted in accordance with regulations and guidelines of the Czech Animal Protection Act (No. 246/1992), and with the approval of the Czech Ministry of Education, Youth, and Sports (MSMT-22421/2013–12), and the institutional Animal Welfare Committee of the Faculty of Medicine and Dentistry of Palacky University in Olomouc. The studies were performed using female 8–10-week-old athymic BALB/c nude mice (Envigo, Horst, The Netherlands). […]
Tumor xenografts were established near the front shoulder of mice by subcutaneous injection of 5 × 10^6 cells (U-87 MG) or 2 × 10^6 cells (A431-CCK2R) and the same amount of A431-mock cells as a control in 200 μL appropriate medium and Matrigel (1:1). […] Tumors, blood, muscle tissue, and organs were extracted, weighed, and activity uptake of the samples was measured in the gamma counter. Results were expressed as percentage of injected dose per gram tissue (% ID/g). […] After reconstruction, acquired data was viewed and analyzed with PMOD software (PMOD Technologies Ltd., Zurich, Switzerland). […] Near-infrared in vivo fluorescence imaging was performed with an In-Vivo MS FX PRO small animal imaging system (Bruker Biospin Corporation, Woodbridge, CT, USA). […] An appropriate filter set (excitation = 730 nm and emission = 790 nm) was used for acquiring the Sulfo-Cy7-FSC-peptide - fluorescence in vivo. […]

in vivo = conditions: mouse
Method: All animal experiments were conducted in accordance with regulations and guidelines of the Czech Animal Protection Act (No. 246/1992), and with the approval of the Czech Ministry of Education, Youth, and Sports (MSMT-22421/2013–12), and the institutional Animal Welfare Committee of the Faculty of Medicine and Dentistry of Palacky University in Olomouc. The studies were performed using female 8–10-week-old athymic BALB/c nude mice (Envigo, Horst, The Netherlands). The number of animals was reduced as much as possible (n = 3 per group and time point for all experiments) and retro-orbital (r.o.) tracer injection as well as small animal imaging was carried out under 2% isoflurane anesthesia (FORANE, Abbott Laboratories, Abbott Park, IL, USA) to minimize animal suffering.
Tumor xenografts were established near the front shoulder of mice by subcutaneous injection of 5 × 10^6 cells (U-87 MG) or 2 × 10^6 cells (A431-CCK2R) and the same amount of A431-mock cells as a control in 200 μL appropriate medium and Matrigel (1:1). The tumors were allowed to grow until they had reached a volume of 0.2 to 0.5 cm^3. To evaluate ex vivo biodistribution mice were injected with 1–2 MBq (0.05–0.14 nmol) of radiotracer per mouse and mice were sacrificed by cervical dislocation after 30 and 90 min for [^68Ga]Sulfo-Cy7-FSC-RGD and after 1 and 2 h in the case of [^68Ga]Sulfo-Cy7-FSC-MG. Tumors, blood, muscle tissue, and organs were extracted, weighed, and activity uptake of the samples was measured in the gamma counter. Results were expressed as percentage of injected dose per gram tissue (% ID/g). In vivo PET and CT images were acquired with an Albira PET/SPECT/CT small animal imaging system (Bruker Biospin Corporation, Wood-bridge, CT, USA). Xenograft bearing mice were injected with radiolabeled peptides in a dose of ~5 MBq corresponding to 1–2 μg (0.25–0.58 nmol) of peptide per mouse. Anaesthetized animals were positioned prone head first in the Albira system before the start of imaging. Static PET/CT imaging was carried out 30 and 90 min p.i. for [^68Ga]Sulfo-Cy7-FSC-RGD. Animals injected with [^68Ga]Sulfo-Cy7-FSC-MG were imaged 1 and 2 h p.i. A 10 min PET scan (axial FOV 148 mm) was performed, followed by a CT scan (axial FOV 65 mm, 45 kVp, 400 μA, at 400 projections). Scans were reconstructed with the Albira software (Bruker Biospin Corporation, Woodbridge, CT, USA) using the maximum likelihood expectation maximization (MLEM) and filtered backprojection (FBP) algorithms. After reconstruction, acquired data was viewed and analyzed with PMOD software (PMOD Technologies Ltd., Zurich, Switzerland). 3D images were obtained using VolView software (Kitware, Clifton Park, NY, USA). Near-infrared in vivo fluorescence imaging was performed with an In-Vivo MS FX PRO small animal imaging system (Bruker Biospin Corporation, Woodbridge, CT, USA). Sulfo-Cy7-FSC-MG and Sulfo-Cy7-FSC-RGD were injected in a dose of 0.25–0.58 nmol per mouse and after supine head first positioning, imaging was conducted in various time intervals up to 72 h p.i. An appropriate filter set (excitation = 730 nm and emission = 790 nm) was used for acquiring the Sulfo-Cy7-FSC-peptide - fluorescence in vivo. Identical illumination settings (acquisition time = 15 s, filters = 730/790 nm, f-stop = 2.8, field of view = 100 mm, and binning = 4 × 4) were used for acquiring all images, and fluorescence emission was normalized to photons/s/mm^2. Images were acquired and analyzed using Bruker MI SE software (Bruker Biospin Corporation, Woodbridge, CT, USA).

in vitro = in vitro ADME, human; conditions: human, serum
Method: (§1) [^68Ga]Sulfo-Cy7-FSC-MG and [^68Ga]Sulfo-Cy7-FSC-RGD (6 MBq) were diluted with phosphate buffered saline to a concentration of 1 μM. Subsequently 50 μL of this solution was added to six Eppendorf tubes containing 450 μL PBS and 500 μL octanol. The mixture was vortexed (1400 rpm) at RT for 15 min using a MS 3 basic vortexer (IKA, Staufen, Germany) followed by centrifugation for 2 min at 4500 rpm. Aliquots of 100 μL of both phases were transferred to plastic vials, measured in the γ-counter and logD values were calculated. For stability testing, radiolabeled tracers were diluted with 450 μL fresh human serum and 450 μL PBS as control to a concentration of 2 μM followed by incubation at 37 °C. After 1, 2, and 4 h (n = 3) 50 μL aliquots were precipitated with acetonitrile (1:1) and centrifuged for 2 min at 14 × 10^3 rpm. The supernatant was analyzed by radio-RP-HPLC to evaluate for decomposition and corresponding chromatograms are shown in Supporting Information. For protein binding measurement aliquots were analyzed by size exclusion chromatography using MicroSpin G-50 Columns (Sephadex G-50, GE Healthcare, Vienna, Austria) in triplicates. […] Column and eluate were measured in the γ-counter and percentages of nonprotein bound radiolabeled peptide (column) and protein bound radiotracer (eluate) were calculated.

A431-CCK2R cells = test: CCK-2 receptor internalization assay (radioligand); type: cell-based, human; conditions: for unspecific membrane bound amount: blocked with pentagastrin
Method: To determine the receptor-mediated radioligand uptake A431-CCK2R cells were seeded into 12-well plates (Nunc, Thermo Scientific) with a density of 2 × 10^6 cells per well and left to grow overnight at 37 °C. At the day of the experiment each well was washed twice with fresh internalization medium (DMEM containing 1% fetal bovine serum) followed by the adjustment to a final volume of 1.2 mL with media. After dividing the plate into an unblocked and blocked compartment (6 wells each) 150 μL PBS/0.5% bovine serum albumin (BSA) solution or 150 μL blocking solution (100-fold molar excess of pentagastrin in PBS/0.5% BSA solution) were added and left for 10 min at room temperature. Hereafter, 150 μL of the radiolabeled peptide (1 nM [^68Ga]Sulfo-Cy7-FSC-MG in PBS/0.5% BSA approximately 3 × 10^4 cpm) was added to each well followed by incubation at 37 °C for 1 and 2 h, respectively. After removal of the supernatant each well was washed two times with 1 mL ice-cold internalization medium and supernatants were collected in plastic vials (wash fraction). For determination of the membrane bound radiotracer cells were incubated twice with 1 mL ice-cold 0.05 M glycine-buffer (pH 2.8) for 5 min collecting the supernatants. Finally, internalized fraction was obtained by lysing the cells with 1 mL of 2 M sodium hydroxide solution (NaOH) two times and collecting the samples. To determine the amount of radiotracer of each fraction all samples were taken for γ-counter measurement against standard solution, i.e., 150 μL radiotracer.

physchem = type: physicochemical; conditions: buffer or solvent
Method: [^68Ga]Sulfo-Cy7-FSC-MG and [^68Ga]Sulfo-Cy7-FSC-RGD (6 MBq) were diluted with phosphate buffered saline to a concentration of 1 μM. Subsequently 50 μL of this solution was added to six Eppendorf tubes containing 450 μL PBS and 500 μL octanol. The mixture was vortexed (1400 rpm) at RT for 15 min using a MS 3 basic vortexer (IKA, Staufen, Germany) followed by centrifugation for 2 min at 4500 rpm. Aliquots of 100 μL of both phases were transferred to plastic vials, measured in the γ-counter and logD values were calculated. For stability testing, radiolabeled tracers were diluted with 450 μL fresh human serum and 450 μL PBS as control to a concentration of 2 μM followed by incubation at 37 °C. After 1, 2, and 4 h (n = 3) 50 μL aliquots were precipitated with acetonitrile (1:1) and centrifuged for 2 min at 14 × 10^3 rpm. The supernatant was analyzed by radio-RP-HPLC to evaluate for decomposition and corresponding chromatograms are shown in Supporting Information. For protein binding measurement aliquots were analyzed by size exclusion chromatography using MicroSpin G-50 Columns (Sephadex G-50, GE Healthcare, Vienna, Austria) in triplicates. First, the columns were centrifuged at 750 rcf for 1 min to remove the storage buffer. After adding 25 μL of incubation solution columns were centrifuged again for 2 min with 2000 rcf. Column and eluate were measured in the γ-counter and percentages of nonprotein bound radiolabeled peptide (column) and protein bound radiotracer (eluate) were calculated.

[2] = type: physicochemical; conditions: pH 7.4
Method: as §1

SMILES: CSCC[C@H](NC(=O)[C@H](Cc1c[nH]c2ccccc12)NC(=O)CNC(=O)[C@H](Cc1ccc(O)cc1)NC(=O)[C@H](C)NC(=O)[C@@H](CCC(=O)O)NC(=O)CCSC1CC(=O)N(CCC(=O)N[C@H]2CCCN(O)C(=O)/C=C(/C)CCOC(=O)[C@@H](NC(=O)CCN3C(=O)CC(SCCC(=O)N[C@H](CCC(=O)O)C(=O)N[C@@H](C)C(=O)N[C@@H](Cc4ccc(O)cc4)C(=O)NCC(=O)N[C@@H](Cc4c[nH]c5ccccc45)C(=O)N[C@@H](CCSC)C(=O)N[C@@H](CC(=O)O)C(=O)N[C@@H](Cc4ccccc4)C(N)=O)C3=O)CCCN(O)C(=O)/C=C(/C)CCOC(=O)[C@@H](NC(=O)CCCCC[N+]3=C(C=CC4=CC(=CC=C5N(C)c6ccc(S(=O)(=O)[O-])cc6C5(C)C)CCC4)C(C)(C)c4cc(S(=O)(=O)O)ccc43)CCCN(O)C(=O)/C=C(/C)CCOC2=O)C1=O)C(=O)N[C@@H](CC(=O)O)C(=O)N[C@@H](Cc1ccccc1)C(N)=O (stereo partly drawn) [[^68Ga]Sulfo-Cy7-FSC-MG, metal not drawn] (I: [Mpa][dE]AYGWMDF-NH2 / II: [Mpa][dE]AYGWMDF-NH2; linker I:1-II:1 via X1)
- PET target-to-organ contrast [1]: moderate target-to-organ contrast
- tissue to tissue ratio (in vivo; female, athymic BALB/c nude, total radioactivity): < 0.5
- tissue uptake at 2 h (in vivo; accumulation in kidneys): 71.1 ± 7 %ID/g
- tissue uptake at 2 h (in vivo; accumulation in liver tissue): 25.7 ± 3.3 %ID/g
- tissue uptake at 1 h (in vivo; blood): 4.7 ± 0.7 %ID/g
- tissue uptake at 2 h (in vivo; blood): 3 ± 0.5 %ID/g
- tissue uptake at 1 h (in vivo; tumor uptake): 3.1 ± 0.9 %ID/g
- tissue uptake at 2 h (in vivo; tumor uptake): 3.8 ± 0.7 %ID/g
- fraction unbound at 2 μM (in vitro): < 0.3
- internalized activity (A431-CCK2R cells; blocked with pentagastrin in 100-fold molar excess, 1 h): 0.19 ± 0.1%
- internalized activity (A431-CCK2R cells; blocked with pentagastrin in 100-fold molar excess, 2 h): 0.44 ± 0.41%
- unspecific membrane bound amount (A431-CCK2R cells; 1 h): 0.13 ± 0.06%
- unspecific membrane bound amount (A431-CCK2R cells; 2 h): 0.25 ± 0.23%
- unspecific membrane bound amount of activity (A431-CCK2R cells; unblocked, 1 h): 0.21 ± 0.08%
- internalized activity (A431-CCK2R cells; unblocked, 1 h incubation): 4.56 ± 0.39 % of total activity
- unspecific membrane bound amount of activity (A431-CCK2R cells; unblocked, 2 h): 0.31 ± 0.29%
- internalized activity (A431-CCK2R cells; unblocked, 2 h incubation): 8.75 ± 1.32 % of total activity
- remaining at 1 h, 2 μM (physchem): 95.1 ± 0.2%
- remaining at 2 h, 2 μM (physchem): 94.9 ± 0.4%
- remaining at 4 h, 2 μM (physchem): 94.4 ± 0.1%
- logD [2]: -1.9 ± 0.17
